Biological target: Recombinant full-length Pin1, N-terminally His6-tagged (human) (UniProt Q13526)
Assay: SDS-PAGE and western blot; fractions eluted from the HisTrapHP column with imidazole, 15% SDS-PAGE, HRP conjugated anti-His antibody; second band seen in the more concentrated fractions

stoichiometry N: 2
Substance: Recombinant full-length Pin1, N-terminally His6-tagged (from UniProt Q13526 1-163) (enzyme)
